Results as given in the DeepSol protein solubility set.

Assay: soluble on expression in E. coli; label from the status in PepcDB or PDB records

Row | Sequence | soluble on expression in E. coli
1 | MATTIPGSLVNKTKKFFMGMPAPTGYVPGVGRGATGFTTRSDIGPARDPTELPEAGPVGPSPQGASSSSAPPAKRARDDDGDGEDLNEANYDEFSGYSGSLFSKDPYDQEDEDADRIYNEVDDRLDERHKERREKKYKELVELFHKDRPKIQQGFQDLKRQLAEVTEDEWQAIPEVGDMRNKAKRNARAEKFTPVPDSIIAMNMNYGQMSHSIDSGNGLTTPFASGFMSTLGGGGGAAAAGAKSGIMTPGWKSDIPSSGTSTDLDLVKIGQARNKIMDMQLTQVSDSVTGQTVVDPKGYLTDMQSIIPQMGGDLQDIKKARMLLKSVRETNPRHPPAWVASAVLEEQAGKLQTARNFIMEGCEKIKNSEELWLHAIRLHPPELGRSIVANAVRSCPHSVRLWCKASDLEQDLKDKKKVLRKALEQIPSSVKLWKAAVELEDPEDARILLTRAVECCSSSTEMWLALARLETYENARKVLNKAREHIPTDRHIWLSAARLEETRGQKDMVDKIVAKAMSSLKVNQVEINRDQWLKDAVDAEMAKCPITCQAIIRNVIGLGVEDEDKRTTWLADAENFEKEEAFTCVRTVYAIALKEFSRKRSIWDAAIHFEREHGSLDEHEAILLKACETVPEVEDYWLMLAKLRFVNKRVGEARDTLMSAFEKHGHQSEKIWLAATKIEIETDQFDTARGLFGKARAKAPSARVWMKNAHFEWCLGNVEEAKRLCEECIQKYDDFHKIYLVLGQVLEQMNDVHGARLAYTQGIRKCPGVIPLWILLVRLEEKAGQIVKARVDLEKARLRNPKNDDLWLESVRFEQRVGCPEMAKERMSRALQECEGSGKLWAEAIWMEGPHGRRAKSIDALKKCEHNPHVLIAAARLFWSERKIKKAREWFVRAVNLDPDNGDAFANFLAFEQIHGKEEDRKSVFKKCVTSEPRYGDLWQSVSKDPINWRRTTEEILQLATQKIKVPT | not soluble
2 | MGSDKIHHHHHHAQKGEKTLTVEVSNEWTQNKTDEPIVIDLNNLKAGFNIKSATVWEGNKEIPSQLDDLNGDARADELAFLIDMPAKSNKSFRIILSSEKSEKNYPARTYAQMKAYGHNNKFANITGFSAAGTENVYSFVYHHGPAIESELVAYRIYFNEKQTVDPYSKVNKRLEIKETCFYPTKAQRANGYGDDALRVYNSGGVGALKGWNGTEATHIKPVVNRTERVLASGPVRAIVEAEVIGWEYQGNDLNMINRYTIYGGHRDMKVDVLFDRPLKQEVFAAGVQILKEGGHMSDHKGLTGSWGTDWPVTDTIGYVKETTGMGTFIPKYIGKEVQDGSNYLYTLQAPGQQHFHYYVTFTSKKESFGFKDMKDWFNYLPQWRKELEHPCKITIK | not soluble
3 | MGAAAAMLAAVLLLTPITVPAGYPGAVAPATAACPDAEVVFARGRFEPPGIGTVGNAFVSALRSKVNKNVGVYAVKYPADNQIDVGANDMSAHIQSMANSCPNTRLVPGGYSLGAAVTDVVLAVPTQMWGFTNPLPPGSDEHIAAVALFGNGSQWVGPITNFSPAYNDRTIELCHGDDPVCHPADPNTWEANWPQHLAGAYVSSGMVNQAADFVAGKLQ | not soluble
4 | MKKARRRIDVDELFEGVRRGDRTLISRAITLLESTAPAHRVLAQELLVKLLPFSGKALRVGITGVPGVGKSTFIEALGMKLIGDGHKLAVLAIDPSSTKTRGSILGDKTRMAKLAREDNAFIRPSPSAGTLGGVAKATRESMVVFEAAGYDVILVETVGVGQSEVAVSQMVDCFTFLALAGAGDQLQGIKKGILEMADLVAINKADGPNLKNAKRAARELAAAMRMVRQENDLWHPPTITMSAVEHEGVDEFWEHVQNHNKAMLESGVFEHNRREQQVQWMWSMVHETLLQRLNTDPNVVEVKKLVEDQLRHAHITPTLAAERILKAFDHVTAD | not soluble
5 | HISSQQHEKAIKSYFDEAQTQGVIIIKEGKNLSTYGNALARANKEYVPASTFKMLNALIGLENHKATTNEIFKWDGKKRTYPMWEKDMTLGEAMALSAVPVYQELARRTGLELMQKEVKRVNFGNTNIGTQVDNFWLVGPLKITPVQEVNFADDLAHNRLPFKLETQEEVKKMLLIKEVNGSKIYAKSGWGMGVTPQVGWLTGWVEQANGKKIPFSLNLEMKEGMSGSIRNEITYKSLENLGII | soluble
6 | MGSDKIHHHHHHDLLHESYGQVVSEDYVPKTEEDVSYLVNAAYIPWRETLLQWNGVVRAQELCADQDVLPARDGIGWVDGYIYKRWHQHTWTTEDDGVLQGWERTYNGVNTCNRILSQIEEGVISVDGETKEKLIAELKVLRASYYYILIDLYGNVPIVTDFKDTSLPQQSTRKEVFDFIVKEITENMDLLSETPRGYYYGRFNKWAAHTLLAKMYLNAEVWSGTAQWQKCIDECDIVINYAEKSGEYALENNQKDVFVTHNENSKEIIFALPFDEIYVTGWNDFDFHMYTLAPENQDTYQLTARPWGGVCAVPQFINSFDEDDARLEDNYIQGQQYTYSGEILKRSIDGKPLIYTVDVPSIDQSDVDDGFRWGKFEYATGITNRLSNDWPLLRYADVLMMKAESLMRLGKSGAGALVTQVRERAFKNEPEKAQVTDAELMGGSVYDYGRRDSYKTEHDGGTDIKYGRFLDELGWEFCQEGRRRQDMIRFGIFTTKAWFSHDKSDETKNLYPIPNKVLLTNSNLKQNPGYSK | not soluble
7 | MSLKIRLPEMIDYFRKENGWTMKEFGEKLGKSESAISKWIKGVRSPMVEDFDKMVNLFNTDPDTLMYGASDLSTTLSEINKISSQLEEPRQKVVLNTATNQLDEQNQEKKKESKVIPINKIPDDLPPYISRKILENFVMPTNTMEYEPDEDMVDVPILGRIAAGLPLDAVENFDGTRPVPAHFLSSARDYYWLMVDGHSMEPKIPFGSYVLIEAVPDVTDGTIGAVLFQDDCQATLKKVYHEIDCLRLVSINKEFKDQFATQDNPAAVIGQAVKVEIDLEGHHHHHH | soluble
8 | MGSDKIHHHHHHMFEKRHRITLLFNANKAYDRQVVEGVGEYLQASQLEWDIFIEEDFRARIENIKEWLGDGVIADYDDPEIEKLLADVHVPIVGVGGSYHQPEQYPPVHYIATDNAALVESAFLHLKEKGVHRFAFYGLPASSGKRWAVEREYAFCQLVAKEKYRGVVYQGLETAPENWQHAQNRLADWLQTLPPQTGIIAVTDARARHVLQACELLHIPVPEKLCVIGIDNEELTRYLSRVALSSVAQGTRQMGYQAAKLLHRLLNNEALPLQRQLIPPMRVVERRSTDYRSLNDPSVIQAMHYIRNNACKGIKVEQVLDAVGISRSNLEKRFKEEVGETIHTVIHSEKLEKARSLLVSTSLSINEISQMCGYPSLQYFYSVFKKEYDVTPKEYRDRHSEVML | not soluble
9 | MGSDKIHHHHHHMSKPAITLWSDAHFFSPYVLSAWVALQEKGLSFHIKTIDLDSGEHLQPTWQGYGQTRRVPLLQIDDFELSESSAIAEYLEDRFAPPTWERIYPLDLENRARARQIQAWLRSDLMPIREERPTDVVFAGAKKAPLTAEGKASAEKLFAMAEHLLVLGQPNLFGEWCIADTDLALMINRLVLHGDEVPERLVDYATFQWQRASVQRFIALSAKQSG | not soluble
10 | MGSDKIHHHHHHMRYESSKKILVIEDDAVTRNLFLEVLEAQGFDTIGAEDGVAGIQKAQEHLPDLVICDIQMPDMDGYTVLARLRQDPHTAIIPFIFLTGSNTQTDVRKGMESGADDYLTKPSSIEDFLRAIAVRLEKQAFLRYWYATNSHQTAQSPPSSFNSESIFPSVPQLQAVFDFIEANYRQGITLSDVALAVGYSPAYLTNRVAKQTGETVNAWIVKRRMAAARPLLRDTNQTIDQIAIALGYQNTCHFSRQFRQHHGLSPKTWRKQQQLLQSSKNAKLQLIKNHDALEKLVPLGC | not soluble
11 | MGSDKIHHHHHHMANMKNSNDRIILFRKAGEKVDATKMLFLTEYGLSHEADTDTEDTMDGSYNTGGSVESTMSGTAKMFYGDDFADEIEDAVVDRVLYEAWEVESRIPGKNGDATKFKAKYFQGFHNKFELKAEANGIDEYEYEYGVNGRFQRGFATLPEAVTKKLKATGYRFHDTTKADALTGEDLTAIPQPKVDSSTVTPGEV | not soluble
12 | GGVDSHSHIAGAKVNTGRTLRPEDSKKDLFSKEGLRQGSGFSIPSTFKTGYQYSGMGYTTVIEAAMPPLVARHTHEEFMDLPQIDKAAMPLFGNSWMVLEYLKNGDLSMCAAYVAWLLKVTKGYAIKIVNPGGTEAWGWGKNVHGLDDEVPYFGITPREIVTGLAKVNEMLGLPHSIHVHPNNLGHPGNWETTIDTMDCVKDIKAKPKFGDRDTVYYNTHLQFHSYGGTSWKDCVSKGVETADYVNKNKHVMIDVGQVTLDETTTMTADGPMEYDLHMTNGLKWANCDVELETGSGVVPFIYSPKGPVYSLQWAIGLDIFLYTQPEKLILTTDHPNAGPFVRYPRVIAWLLSKEYRNDWIQNRVHKWAAEKSHITETDREYSMYEIAQITRANSSKVLGLSGDRGHLGAGAKADISIYDIDPEEKSGKKIEKAFLEAAYVLKDGEIVVKNG | not soluble
